Data from the supplement of paper PMC10126150.
± gives the standard deviation of the averaged measurements.

Tested on: ATP
Assay: switch fluorescence ratio, 500 uM ATP over buffer (Cy3 cluster intensity, sum of 5 cycles each) (fold (ratio)); higher = stronger signal-on switching upon ATP binding; sequences stand for … in TCGTCGGCAGCGTCAGATGTGTATAAGAGACAGTTTTTTTTTTTTTTTTTTTTTTTTT…TC
Settings: aptamer strand: ATP DNA aptamer (quencher-CACCTGGGGGAGTATTGCGGAGGAAGG + anchor), 100 nM annealed; ATP concentration: 500 uM
Outline: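 Per cluster, summed Cy3 intensity from the target cycles was divided by that from the buffer cycles to give the fluorescence ratio, then averaged per switch-domain sequence. Clusters outside 100-1000 RFU were excluded. The Cy3-labelled switching-strand clusters, on a modified Illumina MiSeq flow-cell, were annealed to 100 nM quencher-labelled ATP aptamer and imaged in selection buffer, then after 15 min with 500 uM ATP at 22 °C, for five cycles with NaOH stripping and re-annealing between them.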
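Also: ATP exposure 15 min at 22 °C before imaging.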

| Sequence | switch fluorescence ratio |
| --- | --- |
| TAATAGAAGT | 0.979 ± 0.052 |
| ATTACGGGGG | 1.01 ± 0.088 |
| ACGTATTAAT | 1.12 ± 0.031 |
| AGCTTGTGTG | 1.01 ± 0.061 |
| AATGTGAAAA | 0.976 ± 0.053 |
| AACGTGTTTT | 1.042 ± 0.006 |
| GCATTTGTAC | 1.266 ± 0.0026 |
| ACTCGGCCGG | 1.001 ± 0.009 |
| CTAAAGGACT | 0.9989 ± 0.0015 |
| TGTTTTAATT | 0.99 ± 0.021 |
| AGATGAGGGA | 1.02 ± 0.032 |
| GTTTGGATCG | 1 ± 0.015 |
| AGGGTTTTAC | 1.017 ± 0.0013 |
| TGGTCCAGCG | 0.998 ± 0.015 |
| TCAATTCAGG | 1.01 ± 0.016 |
| TGGGGCTATA | 0.995 ± 0.037 |
| AATCGGGGGG | 0.974 ± 0.013 |
| GGGTCTAGGA | 1.006 ± 0.0052 |
| GATTATGCGC | 1.03 ± 0.037 |
| GGGAATGGGT | 1.01 ± 0.014 |
| AAAATAAGGC | 0.981 ± 0.03 |
| GGTTTACGTC | 0.9998 ± 0.0082 |
| TCTGCGGGGA | 1.14 ± 0.21 |
| TTTTATGCAA | 1.28 ± 0.3 |
| GTATTAGCAG | 1.03 ± 0.026 |

| Sequence | switch fluorescence ratio |
| --- | --- |
| CTGTGGAAAG | 0.991 ± 0.018 |
| GTGAGAGGGG | 1.008 ± 0.0069 |
| GCGGGGGCAG | 0.993 ± 0.013 |
| GAATCAGTGT | 1 ± 0.022 |
| CGGCCCAGAA | 1 ± 0.015 |
| AGTAATGGTT | 1.01 ± 0.014 |
| TGTAAAGGGA | 0.998 ± 0.024 |
| AGTGTTTGG | 0.997 ± 0.02 |
| TCTGGTAGCG | 1.02 ± 0.021 |
| AATTGGTAAA | 0.9816 ± 0.0044 |
| GCCGGCACTG | 1.002 ± 0.0064 |
| ACGTGGTAGC | 1 ± 0.03 |
| CTTAGTATAT | 1 ± 0.024 |
| CGTAAGACGT | 1.03 ± 0.044 |
| CTGTAACGTT | 1.015 ± 0.0015 |
| TTTAAGACGG | 0.98439 ± 0.00032 |
| GGAAGTTAGA | 0.9819 ± 0.0036 |
| GTGGTGGCAG | 0.979 ± 0.015 |
| GCGTCCACGG | 1.017 ± 0.01 |
| CCTAGGGCGG | 1.006 ± 0.0011 |
| TGGGAATTGA | 0.9976 ± 0.0057 |
| AGCGGGGGTT | 0.9996 ± 0.0055 |
| GGGGATGGCT | 0.992 ± 0.039 |
| GCTATTGGTG | 1.06 ± 0.019 |
| ATGGGCGCGC | 0.982 ± 0.036 |

| Sequence | switch fluorescence ratio |
| --- | --- |
| CTCGGCTTGT | 1.05 ± 0.044 |
| TGATGTTACC | 1.06 ± 0.02 |
| AATAGGTTTT | 1.02 ± 0.011 |
| TAAGAGTTC | 0.99 ± 0.034 |
| AACGGCGCTA | 1.045 ± 0.0057 |
| GAGTGGGTTT | 0.999 ± 0.03 |
| AGATGAGGAA | 1.004 ± 0.01 |
| CATCTGTTGT | 0.9856 ± 0.0092 |
| TTGGCGGGTG | 1.04 ± 0.041 |
| TGGGTTGTTG | 0.985 ± 0.038 |
| GGGAACTTGG | 0.986 ± 0.0099 |
| TGGGTGTCTG | 0.9826 ± 0.0043 |
| GAGCCGGGCC | 0.99 ± 0.023 |
| GGCCAAGGAT | 1.01 ± 0.028 |
| GGGTAGCAGG | 1.04 ± 0.01 |
| AACATAGTAG | 0.96446 ± 0.0004 |
| ATTAGTGAGC | 1.03 ± 0.051 |
| GGGCTGTTGC | 1.08 ± 0.13 |
| GTTTTTAATT | 0.95322 ± 0.0005 |
| ATATCTTTCG | 1.02 ± 0.014 |
| TCCCGAAGAT | 1.03 ± 0.023 |
| AATCAATTTT | 1.007 ± 0.0054 |
| AGTTCGTGGG | 0.973 ± 0.013 |
| TTCTTAATGC | 0.985 ± 0.024 |
| AGTTAACAGC | 0.959 ± 0.04 |

| Sequence | switch fluorescence ratio |
| --- | --- |
| CGTTGAGTCG | 0.992 ± 0.06 |
| ATGGGAGCCA | 1 ± 0.028 |
| CATGGATAGC | 0.963 ± 0.012 |
| GAATGGGATC | 0.9698 ± 0.0059 |
| ATATTAAAAG | 0.9959 ± 0.0043 |
| TTACATTGAG | 0.976 ± 0.015 |
| TGGATGGGGT | 0.973 ± 0.027 |
| TTCTCTAGGG | 0.99 ± 0.0049 |
| GCAATCGAGT | 1.6 ± 0.04 |
| ATTGGGTTTC | 0.982 ± 0.021 |
| TTTGTTGCAG | 0.994 ± 0.036 |
| AATCGGGTCA | 0.985 ± 0.021 |
| GAAGTTTAAA | 1.02 ± 0.035 |
| TCCGGCGGTG | 1.03 ± 0.027 |
| CTTGGTAATA | 1.062 ± 0.0066 |
| ATTTCAGTTG | 1.011 ± 0.006 |
| AGAAAGTTTG | 1.01 ± 0.044 |
| TGGGAGAGTG | 0.994 ± 0.0055 |
| ATGGGTTGGG | 0.991 ± 0.017 |
| TTCCGGGTAT | 1.07 ± 0.03 |
| TTAATCGTAG | 0.991 ± 0.013 |
| GGAATCATGG | 0.996 ± 0.046 |
| AGGGTAGAGC | 1.09 ± 0.15 |
| AGCCTTTTTG | 0.992 ± 0.042 |
| GGCCGGGACT | 0.987 ± 0.062 |

| Sequence | switch fluorescence ratio |
| --- | --- |
| TGTTACGGAG | 1.009 ± 0.0042 |
| TGGGACAGGG | 1.03 ± 0.088 |
| TAGGATCGGA | 0.96 ± 0.032 |
| TTAGGACTGG | 0.992 ± 0.0054 |
| TGAAAAAGAT | 0.989 ± 0.028 |
| TCTAAGGTTA | 1 ± 0.02 |
| GGCCGTGAGG | 1.01 ± 0.0098 |
| GGGTATTTTG | 0.997 ± 0.046 |
| GAGCGCCGGG | 1.01 ± 0.017 |
| GTATGAGTTG | 1.02 ± 0.027 |
| AGGGGTGTGG | 1.01 ± 0.017 |
| GATGAGGAAG | 1.01 ± 0.06 |
| AGAAAAACCG | 1.05 ± 0.052 |
| TATGTCCCGT | 0.974 ± 0.029 |
| TGTGGCGACG | 0.957 ± 0.012 |
| CATTTAGACG | 1.01 ± 0.11 |
| TTAAGGGCTC | 1 ± 0.013 |
| GCAGGAATGT | 1.0036 ± 0.00065 |
| TTCACCCTTT | 1.02 ± 0.049 |
| AGGCCCGGGA | 0.997 ± 0.013 |
| TACCGGGGAG | 1.021 ± 0.0045 |
| AGTAGTGGGT | 1.02 ± 0.056 |
| GGTTCACGGC | 1.03 ± 0.015 |
| GGACGTAAGG | 0.977 ± 0.016 |
| CGATGCATGG | 1.71 ± 0.19 |

| Sequence | switch fluorescence ratio |
| --- | --- |
| CCGGGAAGGC | 2.043 ± 0.0097 |
| CAGGGTGCTA | 1 ± 0.075 |
| GGCATAGATT | 0.976 ± 0.066 |
| CAGTTGTGGG | 0.9802 ± 0.0066 |
| GACTAACTAC | 1.251 ± 0.0087 |
| GATTCAGCGC | 0.99 ± 0.03 |
| GGCATTTGTG | 1 ± 0.025 |
| TTTAAATTGT | 0.99 ± 0.035 |
| TAGATGCATG | 1 ± 0.031 |
| AAGCACGTTG | 1.05 ± 0.027 |
| GTGGCAGGGG | 1.36 ± 0.63 |
| GCGCGGAGGA | 1.03 ± 0.029 |
| GAATGGCCAG | 0.992 ± 0.034 |
| TCTGTCGGGC | 0.994 ± 0.054 |
| AACGGTTTGG | 1.01 ± 0.021 |
| GGCTGGTGTG | 1.02 ± 0.029 |
| TTAATAAATT | 1.03 ± 0.018 |
| ACTCGAGGGA | 1.01 ± 0.011 |
| ATATTTGACA | 1.01 ± 0.026 |
| GCGATGTATA | 1.02 ± 0.013 |
| ACCGCGTTTT | 1.03 ± 0.041 |
| AGGTCGGGTA | 0.979 ± 0.038 |
| ATTTGGATAA | 0.9893 ± 0.0066 |
| GATGGCGGAG | 1.03 ± 0.042 |
| TATTTAGCCC | 1.047 ± 0.0069 |

| Sequence | switch fluorescence ratio |
| --- | --- |
| AGGAATTCGG | 0.999 ± 0.017 |
| ACGAGTTACT | 1.1 ± 0.013 |
| TGTGTTTTTA | 1.006 ± 0.0016 |
| CATGGAACCT | 1.92 ± 0.11 |
| TTTCGCCATT | 1.3 ± 0.46 |
| TGTTATAGAC | 1.05 ± 0.041 |
| TGCGGGTTTC | 1.04 ± 0.017 |
| CTTCTAAGTC | 1.004 ± 0.0097 |
| GTCGGCGTAG | 1.03 ± 0.036 |
| TTTTATTTTC | 0.993 ± 0.027 |
| ATGGTATTTC | 0.9887 ± 0.0013 |
| TATGTGGGTG | 1.01 ± 0.035 |
| AGCTGGGGTA | 0.951 ± 0.029 |
| ATATAGTAAT | 0.9842 ± 0.0078 |
| TTTGGGAGGA | 1.02 ± 0.047 |
| AAGGGGACTT | 1.02 ± 0.037 |
| GGGCGGCTGT | 1 ± 0.033 |
| AATTCGATAG | 0.966 ± 0.0039 |
| TAGCATTCAT | 0.994 ± 0.0072 |
| GGGGGGGTG | 1.04 ± 0.013 |
| AAGGGCGTAT | 1.01 ± 0.02 |
| CACTCTGTCA | 1.04 ± 0.022 |
| TGTGGGTTTT | 1.02 ± 0.056 |
| TATTACCCAA | 1.05 ± 0.025 |
| AGGGATTATT | 1.02 ± 0.016 |

| Sequence | switch fluorescence ratio |
| --- | --- |
| TTCTTTGGGA | 1.02 ± 0.028 |
| AGGGGAAGGT | 0.984 ± 0.021 |
| TTCAATGTCG | 1.05 ± 0.024 |
| GCTAGGAAGT | 0.983 ± 0.022 |
| TTTGCCGCGG | 0.995 ± 0.023 |
| GACCATTTAA | 1.023 ± 0.0027 |
| GGAGTATAAG | 0.957 ± 0.012 |
| TTTCTAGTGG | 0.999 ± 0.03 |
| AGGTCCCTGT | 1.01 ± 0.042 |
| GACTTGACTG | 1.11 ± 0.03 |
| AATAGAGGTC | 0.988 ± 0.013 |
| AAAAGGAGTT | 0.998 ± 0.016 |
| GTCATTGGAG | 1.008 ± 0.0079 |
| ATCGTGATCC | 1.016 ± 0.0094 |
| CAGAATGTTA | 1 ± 0.038 |
| GGGATCTTGA | 1.07 ± 0.051 |
| ACACGTACTT | 1.52 ± 0.065 |
| AGGTTGGCTT | 0.96006 ± 0.0007 |
| GAGGCGGGTG | 1.01 ± 0.013 |
| CCGTGTTGCT | 1.12 ± 0.061 |
| CTTGTCAAGT | 0.984 ± 0.071 |
| TTTAATGTTT | 1 ± 0.017 |
| AATTAACGGG | 1.02 ± 0.019 |
| TTCAGGTCGT | 0.992 ± 0.052 |
| ATCGGAGCGG | 1.02 ± 0.031 |
